Laboratory results: US20100204147A1, “Methods For Delivering Thymosin Beta 4, Analogues, Isoforms and Other Derivatives” (REGENERX BIOPHARMACEUTICALS, INC., priority 2003, published 2010)

Target: T1, fibrin (Homo sapiens, UniProt P02671)
T1 construct: purchased Enzyme Research Laboratories (South Bend, Ind.); host or cells: fibrin generated in the well or tube from the purchased fibrinogen with bovine thrombin
T1 sequence (P02671 36-629): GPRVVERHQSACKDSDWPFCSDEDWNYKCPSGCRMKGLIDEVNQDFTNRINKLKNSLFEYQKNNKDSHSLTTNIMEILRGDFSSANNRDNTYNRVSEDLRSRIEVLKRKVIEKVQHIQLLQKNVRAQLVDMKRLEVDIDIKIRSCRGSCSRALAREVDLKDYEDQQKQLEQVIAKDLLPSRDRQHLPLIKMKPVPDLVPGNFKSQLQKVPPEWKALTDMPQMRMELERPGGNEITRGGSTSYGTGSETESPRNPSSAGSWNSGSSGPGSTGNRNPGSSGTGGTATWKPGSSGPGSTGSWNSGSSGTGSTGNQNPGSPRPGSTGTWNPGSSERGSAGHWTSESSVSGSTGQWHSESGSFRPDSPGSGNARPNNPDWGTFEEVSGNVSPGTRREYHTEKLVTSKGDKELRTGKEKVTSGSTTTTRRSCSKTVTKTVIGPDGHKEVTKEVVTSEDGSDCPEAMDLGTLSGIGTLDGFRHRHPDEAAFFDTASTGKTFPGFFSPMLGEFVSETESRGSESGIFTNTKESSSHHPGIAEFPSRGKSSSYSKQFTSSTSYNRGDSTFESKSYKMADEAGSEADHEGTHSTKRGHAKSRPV
T1 sequence (P02675 45-491 partner): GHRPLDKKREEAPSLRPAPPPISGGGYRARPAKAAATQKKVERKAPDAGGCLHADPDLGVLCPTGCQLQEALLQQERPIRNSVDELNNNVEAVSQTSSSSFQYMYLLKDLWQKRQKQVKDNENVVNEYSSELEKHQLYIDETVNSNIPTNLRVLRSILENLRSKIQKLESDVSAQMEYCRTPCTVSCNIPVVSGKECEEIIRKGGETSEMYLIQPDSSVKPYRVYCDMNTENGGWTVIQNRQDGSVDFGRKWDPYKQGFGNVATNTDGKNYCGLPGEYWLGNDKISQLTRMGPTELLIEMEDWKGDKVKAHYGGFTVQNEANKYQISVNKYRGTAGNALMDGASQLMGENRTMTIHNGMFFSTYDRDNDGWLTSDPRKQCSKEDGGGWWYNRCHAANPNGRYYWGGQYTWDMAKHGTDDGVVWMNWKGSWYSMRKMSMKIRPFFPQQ
T1 sequence (P02679 27-437 isoform P02679-2 partner): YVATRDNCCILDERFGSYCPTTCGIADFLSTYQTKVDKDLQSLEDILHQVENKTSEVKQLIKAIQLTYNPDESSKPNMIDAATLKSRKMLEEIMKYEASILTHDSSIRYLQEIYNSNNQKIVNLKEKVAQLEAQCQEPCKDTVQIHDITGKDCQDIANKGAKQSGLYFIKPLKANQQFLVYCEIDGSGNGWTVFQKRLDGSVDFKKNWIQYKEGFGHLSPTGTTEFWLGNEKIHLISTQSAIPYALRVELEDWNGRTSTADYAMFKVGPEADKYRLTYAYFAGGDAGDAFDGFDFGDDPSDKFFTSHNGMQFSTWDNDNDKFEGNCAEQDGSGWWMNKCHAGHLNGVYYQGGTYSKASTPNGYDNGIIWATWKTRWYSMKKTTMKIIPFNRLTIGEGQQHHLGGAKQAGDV
Experiment: Western blot time course of factor XIIIa-mediated incorporation into fibrin
Format: biochemical
Details: mixture of thrombin, factor XIII, thymosin β4 and fibrin; immunoblotting
Description: Reactions of incorporation of FITC-labeled and unlabeled thymosin β4 into fibrinogen and fibrin were performed in Eppendorf tubes containing a mixture of fibrinogen at 3 mg/mL (9 μM) and thymosin β4 or FITC-labeled thymosin β4 at […] (30 μM) in 100 μL TBS with 2.5 mM CaCl2. The reactions were initiated by addition of FXIIIa(Ca) or FXIIIa(Thr) to final concentration of 30 μg/mL. The final concentration of thrombin in the FXIIIa(Thr)-containing mixtures was made at 2.5 NIH u/mL, sufficient to rapidly form fibrin clot which was observed visually. The reactions with FITC-labeled thymosin β4 lasted for 4 hours at 37° C. in the dark and were stopped by heat inactiviation of the enzymes in boiling water for 5 min during fibrinogen and fibrin denatured and precipitated. The pellets were centrifuged and washed 3 times in TBS and then solubilized. The amounts of fibrin(ogen) and FITC-labeled thymosin β4 in the solubilized pellet were determined spectrophotomertrically using absorption molar coefficients E280,1%=15.0 and ε495=72,000 M^−1cm^−1, respectively. […]
Detection of thymosin β4 incorporated into fibrin(ogen) and its fragments was performed as follows. […] The membrane was blocked with a casein blocker for 1 hour and thymosin β4 was detected by the reaction with rabbit anti-thymosin β4 serum and peroxidase-conjugated anti-rabbit IgG. […]

How did the “time at which the amount of incorporated (cross-linked) thymosin β4 reaches saturation” value turn out when thymosin β4 was run?
Its value is 4 h.
